Results taken from patent US20250064988A1.
Blank lines part the entries; values can stand above or below the substance they belong to.

Tests used:
[1] = target: Glycoprotein IIb (GPIIb, also known as antigen CD41) (UniProt P08514); assay: flow cytometry, percent of FDPDs stained; batch 1
[2] = target: Glycoprotein IIb (GPIIb, also known as antigen CD41) (UniProt P08514); assay: flow cytometry, percent of FDPDs stained; batch 2
[3] = target: Glycoprotein IIb (GPIIb, also known as antigen CD41) (UniProt P08514); assay: flow cytometry, percent of FDPDs stained; batch 3
[4] = target: Glycoprotein IIb (GPIIb, also known as antigen CD41) (UniProt P08514); assay: flow cytometry, percent of FDPDs stained; batch 4
[5] = target: Glycoprotein IIb (GPIIb, also known as antigen CD41) (UniProt P08514); assay: flow cytometry, percent of FDPDs stained; batch 5
[6] = target: Glycoprotein IIb (GPIIb, also known as antigen CD41) (UniProt P08514); assay: flow cytometry, percent of FDPDs stained; batch 6
[7] = target: Glycoprotein IIb (GPIIb, also known as antigen CD41) (UniProt P08514); assay: flow cytometry, percent of FDPDs stained; batch 7
[8] = target: Glycoprotein IIb (GPIIb, also known as antigen CD41) (UniProt P08514); assay: flow cytometry, percent of FDPDs stained; mean of 7 batches
[9] = target: P-selectin (also called CD62P) (human) (UniProt P16109); assay: flow cytometry, percent of CD41-positive FDPDs stained; batch 1
Sequence of UniProt P16109 (P16109 42-830): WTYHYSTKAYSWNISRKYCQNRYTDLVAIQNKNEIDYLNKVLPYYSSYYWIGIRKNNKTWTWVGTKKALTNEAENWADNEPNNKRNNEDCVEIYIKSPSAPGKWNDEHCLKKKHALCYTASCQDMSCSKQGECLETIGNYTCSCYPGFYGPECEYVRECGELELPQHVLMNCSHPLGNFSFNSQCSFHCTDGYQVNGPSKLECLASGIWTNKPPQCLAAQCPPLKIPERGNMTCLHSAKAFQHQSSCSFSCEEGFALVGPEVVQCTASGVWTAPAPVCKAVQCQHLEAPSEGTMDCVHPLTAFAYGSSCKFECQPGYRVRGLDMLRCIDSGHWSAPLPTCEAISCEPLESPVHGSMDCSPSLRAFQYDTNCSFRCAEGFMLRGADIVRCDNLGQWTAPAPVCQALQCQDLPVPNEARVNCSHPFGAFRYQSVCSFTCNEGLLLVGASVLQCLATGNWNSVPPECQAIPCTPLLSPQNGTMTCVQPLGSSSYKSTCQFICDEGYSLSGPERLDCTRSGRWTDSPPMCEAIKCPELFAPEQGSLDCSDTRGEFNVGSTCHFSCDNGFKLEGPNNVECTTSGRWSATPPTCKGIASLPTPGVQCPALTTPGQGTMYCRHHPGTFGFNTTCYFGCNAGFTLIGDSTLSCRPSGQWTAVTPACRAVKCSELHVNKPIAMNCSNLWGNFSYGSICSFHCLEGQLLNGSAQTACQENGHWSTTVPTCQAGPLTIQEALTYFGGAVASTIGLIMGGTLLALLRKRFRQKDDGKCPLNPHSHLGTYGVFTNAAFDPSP

[10] = target: P-selectin (also called CD62P) (human) (UniProt P16109); assay: flow cytometry, percent of CD41-positive FDPDs stained; batch 2
[11] = target: P-selectin (also called CD62P) (human) (UniProt P16109); assay: flow cytometry, percent of CD41-positive FDPDs stained; batch 3
[12] = target: P-selectin (also called CD62P) (human) (UniProt P16109); assay: flow cytometry, percent of CD41-positive FDPDs stained; batch 4
[13] = target: P-selectin (also called CD62P) (human) (UniProt P16109); assay: flow cytometry, percent of CD41-positive FDPDs stained; batch 5
[14] = target: P-selectin (also called CD62P) (human) (UniProt P16109); assay: flow cytometry, percent of CD41-positive FDPDs stained; batch 6
[15] = target: P-selectin (also called CD62P) (human) (UniProt P16109); assay: flow cytometry, percent of CD41-positive FDPDs stained; batch 7
[16] = target: P-selectin (also called CD62P) (human) (UniProt P16109); assay: flow cytometry, percent of CD41-positive FDPDs stained; mean of 7 batches
[17] = target: P-selectin (also called CD62P) (human) (UniProt P16109); assay: flow cytometry, human apheresis platelets without TRAP-6
[18] = target: P-selectin (also called CD62P) (human) (UniProt P16109); assay: flow cytometry, human apheresis platelets after 20 µM TRAP-6
Thrombospondin (TSP1) [19] = target: Thrombospondin (TSP1) (UniProt P07996); assay: flow cytometry, resting fresh washed platelets
Sequence of UniProt P07996 (P07996 19-1170 limits assumed): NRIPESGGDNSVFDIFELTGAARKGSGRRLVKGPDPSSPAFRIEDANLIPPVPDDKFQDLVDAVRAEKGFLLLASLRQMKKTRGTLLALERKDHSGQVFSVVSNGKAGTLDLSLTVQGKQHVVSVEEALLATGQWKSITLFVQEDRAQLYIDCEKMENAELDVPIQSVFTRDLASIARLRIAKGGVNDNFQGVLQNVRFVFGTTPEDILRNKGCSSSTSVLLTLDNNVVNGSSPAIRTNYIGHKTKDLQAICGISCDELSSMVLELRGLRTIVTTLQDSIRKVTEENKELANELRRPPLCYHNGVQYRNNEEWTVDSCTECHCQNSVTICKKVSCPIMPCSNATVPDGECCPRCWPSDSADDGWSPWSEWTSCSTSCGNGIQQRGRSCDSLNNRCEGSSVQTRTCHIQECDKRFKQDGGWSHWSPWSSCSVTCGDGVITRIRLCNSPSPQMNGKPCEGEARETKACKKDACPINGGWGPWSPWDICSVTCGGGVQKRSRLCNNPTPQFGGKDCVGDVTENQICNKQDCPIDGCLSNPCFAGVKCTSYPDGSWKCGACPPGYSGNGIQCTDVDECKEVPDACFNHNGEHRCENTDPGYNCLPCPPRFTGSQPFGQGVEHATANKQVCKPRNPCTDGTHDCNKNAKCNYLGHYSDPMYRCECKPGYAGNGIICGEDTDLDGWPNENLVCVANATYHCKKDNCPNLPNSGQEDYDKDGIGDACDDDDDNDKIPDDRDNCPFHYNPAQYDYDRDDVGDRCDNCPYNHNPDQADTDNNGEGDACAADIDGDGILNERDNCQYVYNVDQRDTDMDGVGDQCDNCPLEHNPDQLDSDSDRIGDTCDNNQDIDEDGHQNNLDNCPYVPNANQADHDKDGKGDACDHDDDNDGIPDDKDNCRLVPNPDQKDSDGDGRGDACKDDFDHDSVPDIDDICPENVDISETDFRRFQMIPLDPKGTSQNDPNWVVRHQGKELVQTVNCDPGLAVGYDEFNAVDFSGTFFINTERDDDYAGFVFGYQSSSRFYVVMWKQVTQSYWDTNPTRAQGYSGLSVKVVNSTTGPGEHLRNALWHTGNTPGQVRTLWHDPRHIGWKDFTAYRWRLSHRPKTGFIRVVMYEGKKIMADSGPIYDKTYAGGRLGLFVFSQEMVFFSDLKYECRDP

Thrombospondin (TSP1) [20] = target: Thrombospondin (TSP1) (UniProt P07996); assay: flow cytometry, rehydrated baked FDPDs, average of lots
Thrombospondin (TSP1) [21] = target: Thrombospondin (TSP1) (UniProt P07996); assay: flow cytometry, fresh washed platelets activated with collagen and thrombin
[22] = target: Von Willebrand factor (vWF) (UniProt P04275); assay: flow cytometry, resting fresh washed platelets
Sequence of UniProt P04275 (P04275 764-2813 limits assumed): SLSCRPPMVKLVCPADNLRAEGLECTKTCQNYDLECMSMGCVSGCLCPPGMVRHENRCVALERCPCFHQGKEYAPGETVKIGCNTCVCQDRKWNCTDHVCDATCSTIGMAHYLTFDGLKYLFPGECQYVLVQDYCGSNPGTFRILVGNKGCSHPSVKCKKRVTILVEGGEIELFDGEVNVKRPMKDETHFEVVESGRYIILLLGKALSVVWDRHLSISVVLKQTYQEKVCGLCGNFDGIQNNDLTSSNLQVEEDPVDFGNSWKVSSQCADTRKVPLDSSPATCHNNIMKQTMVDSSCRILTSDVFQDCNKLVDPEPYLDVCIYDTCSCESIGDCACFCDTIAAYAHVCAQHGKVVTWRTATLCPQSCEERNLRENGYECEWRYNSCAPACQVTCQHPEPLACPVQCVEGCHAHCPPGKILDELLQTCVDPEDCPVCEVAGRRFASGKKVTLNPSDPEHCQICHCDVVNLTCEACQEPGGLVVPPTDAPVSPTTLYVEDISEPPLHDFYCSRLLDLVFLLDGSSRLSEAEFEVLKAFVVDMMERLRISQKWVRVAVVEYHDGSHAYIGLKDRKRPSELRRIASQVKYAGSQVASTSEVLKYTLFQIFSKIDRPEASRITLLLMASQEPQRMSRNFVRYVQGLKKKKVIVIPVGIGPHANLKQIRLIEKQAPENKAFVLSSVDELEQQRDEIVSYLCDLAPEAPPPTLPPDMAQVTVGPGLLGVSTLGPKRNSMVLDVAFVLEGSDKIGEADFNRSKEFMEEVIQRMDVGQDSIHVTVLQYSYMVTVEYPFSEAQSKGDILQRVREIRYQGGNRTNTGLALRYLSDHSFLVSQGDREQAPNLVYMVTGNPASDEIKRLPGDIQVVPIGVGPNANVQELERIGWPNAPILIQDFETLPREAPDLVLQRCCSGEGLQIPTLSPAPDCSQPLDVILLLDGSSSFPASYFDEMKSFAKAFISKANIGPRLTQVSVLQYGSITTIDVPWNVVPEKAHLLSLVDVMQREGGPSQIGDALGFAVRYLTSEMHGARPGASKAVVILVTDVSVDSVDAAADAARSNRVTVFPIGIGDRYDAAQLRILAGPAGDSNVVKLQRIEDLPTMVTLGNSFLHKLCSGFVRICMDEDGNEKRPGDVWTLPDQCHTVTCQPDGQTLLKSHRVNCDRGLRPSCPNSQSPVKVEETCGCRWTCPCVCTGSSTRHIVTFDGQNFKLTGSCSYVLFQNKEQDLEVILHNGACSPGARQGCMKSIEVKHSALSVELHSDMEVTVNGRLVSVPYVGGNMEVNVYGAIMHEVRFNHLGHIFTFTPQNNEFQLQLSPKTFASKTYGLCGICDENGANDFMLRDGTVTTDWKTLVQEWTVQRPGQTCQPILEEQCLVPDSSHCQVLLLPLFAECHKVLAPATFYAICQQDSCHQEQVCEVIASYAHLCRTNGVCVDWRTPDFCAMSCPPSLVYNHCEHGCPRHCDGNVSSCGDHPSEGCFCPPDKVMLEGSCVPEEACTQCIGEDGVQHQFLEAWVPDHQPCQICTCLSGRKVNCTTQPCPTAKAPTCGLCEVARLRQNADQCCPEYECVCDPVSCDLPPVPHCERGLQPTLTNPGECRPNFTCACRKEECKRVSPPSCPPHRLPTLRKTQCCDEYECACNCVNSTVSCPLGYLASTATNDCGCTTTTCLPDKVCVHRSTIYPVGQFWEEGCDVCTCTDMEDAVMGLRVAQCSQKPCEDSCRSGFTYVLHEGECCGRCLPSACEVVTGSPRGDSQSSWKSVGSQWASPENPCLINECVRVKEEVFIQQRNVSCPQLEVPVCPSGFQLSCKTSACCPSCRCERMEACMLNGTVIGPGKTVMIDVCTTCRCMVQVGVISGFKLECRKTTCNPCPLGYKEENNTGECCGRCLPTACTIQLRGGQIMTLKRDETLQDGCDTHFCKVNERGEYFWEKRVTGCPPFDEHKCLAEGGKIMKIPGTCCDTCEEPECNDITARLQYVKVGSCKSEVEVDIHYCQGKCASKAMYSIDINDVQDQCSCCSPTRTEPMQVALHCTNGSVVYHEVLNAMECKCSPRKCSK

[23] = target: Von Willebrand factor (vWF) (UniProt P04275); assay: flow cytometry, rehydrated baked FDPDs, average of lots
[24] = target: Von Willebrand factor (vWF) (UniProt P04275); assay: flow cytometry, fresh washed platelets activated with collagen and thrombin

Sequence of UniProt P08514 (P08514 32-1039 limits assumed): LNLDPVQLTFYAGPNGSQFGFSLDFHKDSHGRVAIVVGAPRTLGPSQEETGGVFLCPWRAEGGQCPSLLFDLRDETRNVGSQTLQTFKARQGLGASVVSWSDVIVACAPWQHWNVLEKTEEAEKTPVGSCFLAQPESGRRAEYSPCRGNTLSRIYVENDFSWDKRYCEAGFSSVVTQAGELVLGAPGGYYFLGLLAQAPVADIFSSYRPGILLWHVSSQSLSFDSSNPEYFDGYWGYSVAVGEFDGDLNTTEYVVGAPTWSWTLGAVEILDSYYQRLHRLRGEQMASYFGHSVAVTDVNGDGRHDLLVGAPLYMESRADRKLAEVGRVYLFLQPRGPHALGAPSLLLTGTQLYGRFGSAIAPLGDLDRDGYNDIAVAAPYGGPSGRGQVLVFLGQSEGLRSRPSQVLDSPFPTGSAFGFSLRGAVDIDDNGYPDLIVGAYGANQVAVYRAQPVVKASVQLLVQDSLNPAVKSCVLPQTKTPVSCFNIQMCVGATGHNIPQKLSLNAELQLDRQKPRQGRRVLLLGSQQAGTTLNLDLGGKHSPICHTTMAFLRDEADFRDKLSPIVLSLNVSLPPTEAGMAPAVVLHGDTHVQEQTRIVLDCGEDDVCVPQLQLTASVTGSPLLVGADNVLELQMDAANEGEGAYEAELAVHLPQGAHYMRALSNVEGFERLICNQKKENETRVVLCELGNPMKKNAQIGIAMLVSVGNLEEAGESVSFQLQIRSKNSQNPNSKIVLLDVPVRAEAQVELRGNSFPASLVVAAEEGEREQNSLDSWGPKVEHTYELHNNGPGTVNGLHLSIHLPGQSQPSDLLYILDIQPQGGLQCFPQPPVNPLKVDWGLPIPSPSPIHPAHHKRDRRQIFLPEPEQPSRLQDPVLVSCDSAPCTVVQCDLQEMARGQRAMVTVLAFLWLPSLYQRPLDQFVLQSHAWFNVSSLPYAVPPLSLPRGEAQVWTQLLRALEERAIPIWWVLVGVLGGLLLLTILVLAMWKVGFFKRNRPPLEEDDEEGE

CD41 Positivity (%) [1]: 81.5%
CD41 Positivity (%) [2]: 79.4%
CD41 Positivity (%) [3]: 85.7%
CD41 Positivity (%) [4]: 78.2%
CD41 Positivity (%) [5]: 81.5%
CD41 Positivity (%) [6]: 84%
CD41 Positivity (%) [7]: 78.5%
CD41 Positivity (%) [8]: 81.3%
Substance: anti-CD41 antibody (Beckman Coulter part #IM1416U)

CD62 Positivity (%) [9]: 94.2%
CD62 Positivity (%) [10]: 93.1%
CD62 Positivity (%) [11]: 89.8%
CD62 Positivity (%) [12]: 92.4%
CD62 Positivity (%) [13]: 92.5%
CD62 Positivity (%) [14]: 87.3%
CD62 Positivity (%) [15]: 90.7%
CD62 Positivity (%) [16]: 91.4%
Substance: anti-CD62P antibody (BD Biosciences Cat. No. 550888)

MFI [17]: 2350 MFI
MFI [18]: 127000 MFI
Substance: anti-CD62P-PE antibody (BD Pharmingen Cat #550561 Lot #6322976)

MFI (Thrombospondin (TSP1) [19]): 1220 MFI
MFI (Thrombospondin (TSP1) [20]): 91400 MFI
MFI (Thrombospondin (TSP1) [21]): 3310 MFI
Substance: anti-Thrombospondin-1 (TSP-1) antibody (Santa Cruz Biotech Cat #sc-59887 AF594)

MFI [22]: 4770 MFI
MFI [23]: 14000 MFI
MFI [24]: 19700 MFI
Substance: anti-Von Willebrand Factor antibody (Novus Biologicals Cat #NBP2-54379PE)
